Source: patent publication US20150283262A1 (AstraZeneca / MedImmune, published 2015)
Like-named read-outs stand apart in the source and are kept apart here.

How the values were obtained:
Assay in all cases: cell-based or functional assay
[1] = molecular target: T1, CD19 on CD19 +ve cell lines (Daudi, Ramos, WSU-DLCL2) (human, UniProt P15391 20-556)
T1 sequence (looked up): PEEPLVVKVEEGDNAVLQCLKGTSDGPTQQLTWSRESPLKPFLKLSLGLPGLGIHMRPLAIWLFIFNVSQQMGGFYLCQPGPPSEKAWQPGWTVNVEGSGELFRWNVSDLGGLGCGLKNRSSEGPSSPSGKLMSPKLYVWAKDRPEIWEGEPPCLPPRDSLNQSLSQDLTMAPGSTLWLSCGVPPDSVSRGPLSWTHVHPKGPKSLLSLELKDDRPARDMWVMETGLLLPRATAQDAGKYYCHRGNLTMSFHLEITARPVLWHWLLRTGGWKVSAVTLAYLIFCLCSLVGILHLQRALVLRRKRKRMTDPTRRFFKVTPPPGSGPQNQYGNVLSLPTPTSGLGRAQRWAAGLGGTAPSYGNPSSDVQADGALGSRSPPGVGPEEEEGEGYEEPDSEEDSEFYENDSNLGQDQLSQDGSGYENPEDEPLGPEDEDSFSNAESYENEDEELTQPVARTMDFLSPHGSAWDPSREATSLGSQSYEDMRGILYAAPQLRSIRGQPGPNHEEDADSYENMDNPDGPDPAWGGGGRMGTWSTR

[2] = molecular target: T1, CD19 on CD19 +ve cell lines (Daudi, …); remark: listed apart in the source
[3] = molecular target: T1, CD19 on CD19 +ve cell lines (Daudi, …); remark: listed apart in the source

B1: RB4v1.2-A (anti-CD19 antibody RB4v1.2 conjugated to PBD drug linker A) (antibody, DAR 2.2, V domains shown)
VH: QVQLVQPGAEVVKPGASVKLSCKTSGYTFTSNWMHWVKQAPGQGLEWIGEIDPSDSYTNYNQNFQGKAKLTVDKSTSTAYMEVSSLRSDDTAVYYCARGSNPYYYAMDYWGQGTSVTVS
VL: EIVLTQSPAIMSASPGERVTMTCSASSGVNYMHWYQQKPGTSPRRWIYDTSKLASGVPARFSGSGSGTSYSLTISSMEPEDAATYYCHQRGSYTFGGGTKLEIK
modifications: PBD dimer drug linker A attached to cysteine thiols after TCEP reduction; positions not given; DAR 2.2 for the whole ADC
EC50 (µg/mL), in vitro cytotoxicity, Alamar Blue cell survival, Daudi cells [1]: 0.00112 µg/mL
EC50 (µg/mL), in vitro cytotoxicity, Alamar Blue cell survival, Ramos cells [1]: 0.00102 µg/mL
EC50 (µg/mL), in vitro cytotoxicity, Alamar Blue cell survival, WSU-DLCL2 cells [1]: 0.117 µg/mL

B2: RB4v1.2-D (anti-CD19 antibody RB4v1.2 conjugated to PBD drug linker D) (antibody, DAR 2.18, V domains shown)
VH: B1 VH
VL: B1 VL
modifications: PBD dimer drug linker D (iodoacetamide) attached to cysteine thiols after TCEP reduction; positions not given; DAR 2.18 for the whole ADC
EC50 (µg/mL), in vitro cytotoxicity, Alamar Blue cell survival, Daudi cells [2]: 0.00102 µg/mL
EC50 (µg/mL), in vitro cytotoxicity, Alamar Blue cell survival, Ramos cells [2]: 0.000798 µg/mL
EC50 (µg/mL), in vitro cytotoxicity, Alamar Blue cell survival, WSU-DLCL2 cells [2]: 0.0219 µg/mL

B3: RB4v1.2-E (anti-CD19 antibody RB4v1.2 conjugated to PBD drug linker E) (antibody, DAR 1.93, V domains shown)
VH: B1 VH
VL: B1 VL
modifications: PBD dimer drug linker E attached to cysteine thiols after TCEP reduction; positions not given; DAR 1.93 for the whole ADC
EC50 (µg/mL), in vitro cytotoxicity, Alamar Blue cell survival, Daudi cells [3]: 0.00122 µg/mL
EC50 (µg/mL), in vitro cytotoxicity, Alamar Blue cell survival, Ramos cells [3]: 0.00147 µg/mL
EC50 (µg/mL), in vitro cytotoxicity, Alamar Blue cell survival, WSU-DLCL2 cells [3]: 0.031 µg/mL
